The assay has as its target immobilized gingipain (GP protein) of the anti-gingipain ELISA of Example 18. Description: ELISA on immobilized gingipain. (ELISA stands for enzyme-linked immunosorbent assay.)

B1: KB001 (antibody, V domains shown)
VH: EVQLKQSGPGLVAPSQSLSITCTVSGFSLSIYSVHWVRQPPGKGLEWLGMIWGGGSSDYNSALKSRLSISKDNSKSQVFLKMNSLQTDDTAMYYCARNGNFYAMDYWGQGTSVTVSS
VL: QIVLTQSPAIMSASLGERVTMTCTASSSVSSSFLHWYQQKPGSSPQLWIYSTSNLASGVPARFSGSGSGTSYSLTISSMEAEDAATYYCHQYHHSPYIYTFGGGTKLEIKR
B1 displayed a detectable level of concentration of 3 ng/mL.

The values above are taken from US20250334585A1.
